In PMC9321382:

Columns and labels:
Experiment in all cases: EMSA
Conditions in all cases: EMSA: 5 nM pUC19, 30 min at room temperature, pH 7.0, 50 mM MOPS/50 mM NaCl (low) or 200 mM MOPS/200 mM NaCl (high); 1% agarose in TAE
[1] = test system: EncA encapsulin shell (Myxococcus xanthus)
[2] = test system: EncA encapsulin shell;EncC cargo protein (Myxococcus xanthus;Myxococcus xanthus)
[3] = test system: EncA encapsulin shell (Myxococcus xanthus); remark: listed apart in the source
[4] = test system: EncA encapsulin shell;EncC cargo protein (Myxococcus xanthus;Myxococcus xanthus); remark: listed apart in the source

pUC19 supercoiled plasmid
Kd [1]: 300 nM | Kd [2]: 400 nM | Kd [3]: 300 nM | Kd [4]: 300 nM
